Measurements from patent CN115368447A (HEFEI TIANGANG IMMUNOLOGY PHARMACEUTICAL CO LTD, dated 2022).

Columns and labels:
[1] = biological target: T1, 4-1BB蛋白 (SEQ ID NO:27), expressed on CHO-K1-4-1BB cells and Jurkat-NFAT-lucia-4-1BB cells (Homo sapiens (Human), UniProt Q07011 24-255); experiment: flow cytometry on CHO-K1-4-1BB cells, Alexa-647 anti-human Fc
T1 construct: expressed by lentiviral transduction; also called CHO-K1-4-1BB细胞; Jurkat-NFAT-lucia-4-1BB细胞

[2] = biological target: T2, Nectin-4蛋白 (SEQ ID NO:29), expressed on CHO-K1-Nectin-4 cells and A375-Nectin-4 cells (Homo sapiens (Human), UniProt Q96NY8 32-510); experiment: flow cytometry on CHO-K1-Nectin-4 cells, Alexa-647 anti-human Fc
T2 construct: expressed by lentiviral transduction; also called CHO-K1-Nectin-4细胞; A375-Nectin-4细胞
T2 sequence: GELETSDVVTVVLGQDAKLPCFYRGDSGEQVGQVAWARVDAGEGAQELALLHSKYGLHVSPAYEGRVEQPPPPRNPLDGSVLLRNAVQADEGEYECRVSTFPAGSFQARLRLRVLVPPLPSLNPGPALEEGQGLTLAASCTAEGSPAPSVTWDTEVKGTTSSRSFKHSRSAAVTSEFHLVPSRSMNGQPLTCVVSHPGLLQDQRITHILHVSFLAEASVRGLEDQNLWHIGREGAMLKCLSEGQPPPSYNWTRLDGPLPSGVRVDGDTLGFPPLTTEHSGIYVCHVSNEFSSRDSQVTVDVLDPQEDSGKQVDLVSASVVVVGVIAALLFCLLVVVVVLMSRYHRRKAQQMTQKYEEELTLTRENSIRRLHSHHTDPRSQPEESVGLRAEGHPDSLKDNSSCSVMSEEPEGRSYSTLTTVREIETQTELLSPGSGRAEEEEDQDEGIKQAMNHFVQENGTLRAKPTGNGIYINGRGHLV

4-1BB-strep tagII蛋白 = biological target: T3, 4-1BB-strep tagII蛋白 (Homo sapiens (Human), UniProt Q07011 24-186); experiment: ELISA, 4-1BB-strep tagII coated at 2 ug/mL, HRP anti-human IgG, OD450
T3 construct: Soluble 4-1BB with C-terminal strep tag II, made in house; Coated on the ELISA plate at 2 ug/mL; also called 4-1BB蛋白

Measured: binding result

T1 sequence (Q07011 24-255 limits assumed): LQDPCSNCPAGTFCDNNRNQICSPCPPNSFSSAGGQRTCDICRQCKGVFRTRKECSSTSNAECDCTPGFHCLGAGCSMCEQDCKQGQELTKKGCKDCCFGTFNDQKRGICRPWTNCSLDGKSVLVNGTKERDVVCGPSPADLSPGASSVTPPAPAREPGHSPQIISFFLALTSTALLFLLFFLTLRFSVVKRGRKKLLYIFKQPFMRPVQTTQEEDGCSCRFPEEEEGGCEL

B1: 抗体4-1BB×Nectin-4 (bispecific antibody, human IgG1, kappa, L234A L235A)
scFv: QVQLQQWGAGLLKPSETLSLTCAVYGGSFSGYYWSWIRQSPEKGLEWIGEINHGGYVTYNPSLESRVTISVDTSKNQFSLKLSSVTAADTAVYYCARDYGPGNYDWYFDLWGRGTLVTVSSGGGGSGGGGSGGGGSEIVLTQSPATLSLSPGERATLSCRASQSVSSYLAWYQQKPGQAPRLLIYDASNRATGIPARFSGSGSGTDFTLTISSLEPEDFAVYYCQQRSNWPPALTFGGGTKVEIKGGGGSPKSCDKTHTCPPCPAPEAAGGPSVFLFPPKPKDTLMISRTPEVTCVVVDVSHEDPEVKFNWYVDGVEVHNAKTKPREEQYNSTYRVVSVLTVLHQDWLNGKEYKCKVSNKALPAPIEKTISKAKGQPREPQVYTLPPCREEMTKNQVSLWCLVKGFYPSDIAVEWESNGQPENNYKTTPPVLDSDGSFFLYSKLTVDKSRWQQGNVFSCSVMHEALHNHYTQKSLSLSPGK
heavy: EVQLVESGGGLVQPGGSLRLSCAASGFTFSSYNMNWVRQAPGKGLEWVSYISSSSSTIYYADSVKGRFTISRDNAKNSLSLQMNSLRDEDTAVYYCARAYYYGMDVWGQGTTVTVSSASTKGPSVFPLAPSSKSTSGGTAALGCLVKDYFPEPVTVSWNSGALTSGVHTFPAVLQSSGLYSLSSVVTVPSSSLGTQTYICNVNHKPSNTKVDKKVEPKSCDKTHTCPPCPAPEAAGGPSVFLFPPKPKDTLMISRTPEVTCVVVDVSHEDPEVKFNWYVDGVEVHNAKTKPREEQYNSTYRVVSVLTVLHQDWLNGKEYKCKVSNKALPAPIEKTISKAKGQPREPQVCTLPPSREEMTKNQVSLSCAVKGFYPSDIAVEWESNGQPENNYKTTPPVLDSDGSFFLVSKLTVDKSRWQQGNVFSCSVMHEALHNHYTQKSLSLSPGK
light: DIQMTQSPSSVSASVGDRVTITCRASQGISGWLAWYQQKPGKAPKFLIYAASTLQSGVPSRFSGSGSGTDFTLTISSLQPEDFATYYCQQANSFPPTFGGGTKVEIKRTVAAPSVFIFPPSDEQLKSGTASVVCLLNNFYPREAKVQWKVDNALQSGNSQESVTEQDSKDSTYSLSSTLTLSKADYEKHKVYACEVTHQGLSSPVTKSFNRGEC
notes: Three chains: anti-4-1BB scFv-Fc (knob); human IgG1 Fc with L234A/L235A already contained in the entries; Produced in ExpiCHO, Protein A purified; also called 4-1BB×Nectin-4抗体; 4-1BB×Nectin-4双特异抗体
binds: all assays above
